The values that follow come from PMC4608358.

Assay [1] concerns the target wildtype hamster BiP, N-terminally hexahistidine-tagged (hamster) (UniProt G3I8R9). Kind of assay: native gel or EMSA; purified BiP diluted to a series of concentrations, equilibrated 48 hr at room temperature, native-PAGE immunoblot; share of species II and III against concentration; crude estimate.
For assay [2] the target is unchanged. Kind of assay: SEC-MALS; wildtype BiP 90 µM, Superdex 200 Increase 10/300 in HKM, room temperature. (SEC sorts molecules by how far they enter the pores of the column.)

Several values for one entry are separate records, joined by “and”; a condition that tells them apart may be missing. Identical values can stand only once.

wildtype hamster BiP, N-terminally hexahistidine-tagged, G3I8R9 19-654 (natural protein; other documents disagree on this pair), sequence (G3I8R9 19-654): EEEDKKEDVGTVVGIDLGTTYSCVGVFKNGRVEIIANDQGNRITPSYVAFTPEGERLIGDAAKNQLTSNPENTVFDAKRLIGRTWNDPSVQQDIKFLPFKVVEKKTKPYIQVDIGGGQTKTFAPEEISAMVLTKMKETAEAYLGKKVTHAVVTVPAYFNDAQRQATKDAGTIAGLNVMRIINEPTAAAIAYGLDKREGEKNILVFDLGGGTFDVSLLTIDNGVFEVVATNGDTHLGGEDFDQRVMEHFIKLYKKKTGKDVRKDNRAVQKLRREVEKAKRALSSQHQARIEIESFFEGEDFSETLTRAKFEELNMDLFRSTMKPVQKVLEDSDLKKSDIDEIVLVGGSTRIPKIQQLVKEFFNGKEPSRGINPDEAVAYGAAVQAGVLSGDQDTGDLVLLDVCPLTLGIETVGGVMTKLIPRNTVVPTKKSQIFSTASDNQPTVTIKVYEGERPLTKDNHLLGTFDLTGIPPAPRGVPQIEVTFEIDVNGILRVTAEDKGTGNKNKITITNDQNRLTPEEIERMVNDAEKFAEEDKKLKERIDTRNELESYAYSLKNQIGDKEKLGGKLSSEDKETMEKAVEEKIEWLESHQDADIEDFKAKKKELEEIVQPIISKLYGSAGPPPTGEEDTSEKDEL

With “wildtype hamster BiP, N-terminally hexahistidine-tagged, G3I8R9 19-654 (natural protein; other documents disagree on this pair)”, in assay [1], the K (1/2max)^II (concentration of BiP at which half of species II dissociated) is 0.45 µM and the K (1/2max)^III (concentration of BiP at which half of species III dissociated) was 0.74 µM. In addition, in assay [2], the stoichiometry N was 2 and 3.

Broadly, the stoichiometry N is a count of units in the complex or per binding partner.
